Test results reported in PMC10600506.

Target: SARS-CoV-2 Omicron BA.1 Spike receptor-binding domain (SARS-CoV-2 Omicron BA.1)
Experiment: BLI; RBD1 with hACE2, 'with the same assay condition' as Nb4 with RBD1

Chain of angiotensin-converting enzyme 2, extracellular (Q9BYF1 20-615): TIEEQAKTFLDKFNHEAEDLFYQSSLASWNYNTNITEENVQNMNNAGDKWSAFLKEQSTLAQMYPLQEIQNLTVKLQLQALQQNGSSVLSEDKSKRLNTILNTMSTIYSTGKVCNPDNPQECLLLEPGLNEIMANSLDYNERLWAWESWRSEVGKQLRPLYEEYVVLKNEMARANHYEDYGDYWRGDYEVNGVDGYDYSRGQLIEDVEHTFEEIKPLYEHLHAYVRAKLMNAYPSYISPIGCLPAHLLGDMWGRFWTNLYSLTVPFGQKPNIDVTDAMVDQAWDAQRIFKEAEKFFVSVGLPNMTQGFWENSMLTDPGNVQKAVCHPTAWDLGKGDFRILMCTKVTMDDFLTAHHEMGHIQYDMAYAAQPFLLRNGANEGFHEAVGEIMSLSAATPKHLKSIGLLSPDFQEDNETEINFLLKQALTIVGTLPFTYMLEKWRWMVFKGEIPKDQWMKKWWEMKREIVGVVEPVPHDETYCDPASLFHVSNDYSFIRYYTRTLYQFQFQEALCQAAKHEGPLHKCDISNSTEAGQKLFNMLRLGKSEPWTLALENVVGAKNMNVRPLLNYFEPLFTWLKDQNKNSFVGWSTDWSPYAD

## angiotensin-converting enzyme 2, extracellular (from UniProt Q9BYF1 20-615) (receptor)
  Kd: 9 nM
